Source: the supplement of paper PMC10065799, “High-throughput profiling of sequence recognition by tyrosine kinases and SH2 domains using bacterial peptide display” (eLife, 2023)

Columns and labels:
FGFR1 = FGFR1 (UniProt P11362); assay: phosphorylation enrichment, bacterial display (enrichment ratio); higher = better substrate or ligand; peptides without Tyr show the background
Jak2 = Jak2 (UniProt O60674); assay: as above
c-Abl (mouse) = assay: as above
Fer (mouse) = assay: as above
FGFR3 = FGFR3 (UniProt P22607); assay: as above
EPHB1 = EPHB1 (UniProt P54762); assay: as above
Hck = Hck (UniProt P08631); assay: as above
AncSZ = assay: as above
Fes = Fes (UniProt P07332); assay: as above
Fyn = Fyn (UniProt P06241); assay: as above
EPHB2 = EPHB2 (UniProt P29323); assay: as above
c-Src = assay: as above
MERTK = MERTK (UniProt Q12866); assay: as above
Grb2 SH2 = Grb2 SH2 (UniProt P62993); assay: SH2 binding enrichment of the phosphorylated peptide, bacterial display (enrichment ratio); higher = better substrate or ligand; peptides without Tyr show the background
SHP2-C SH2 = assay: as above
c-Src SH2 = assay: as above
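Throughout, for SH2 binding enrichment of the phosphorylated peptide, bacterial display: peptide library displayed on the E. coli surface as eCPX fusions, selected cells deep-sequenced, score is each peptide's frequency after selection divided by its frequency in the input.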
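Throughout, for phosphorylation enrichment, bacterial display: 11-residue human phosphosite peptides and single-mutation variants displayed on the E. coli surface, counted by deep sequencing, each peptide's frequency after selection divided by its frequency in the unselected input library; frequency after pTyr selection over input frequency; kinase dosed for 20-30% of maximal phosphorylation in three min.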

Sequence of MERTK (Q12866 whole entry, looked up): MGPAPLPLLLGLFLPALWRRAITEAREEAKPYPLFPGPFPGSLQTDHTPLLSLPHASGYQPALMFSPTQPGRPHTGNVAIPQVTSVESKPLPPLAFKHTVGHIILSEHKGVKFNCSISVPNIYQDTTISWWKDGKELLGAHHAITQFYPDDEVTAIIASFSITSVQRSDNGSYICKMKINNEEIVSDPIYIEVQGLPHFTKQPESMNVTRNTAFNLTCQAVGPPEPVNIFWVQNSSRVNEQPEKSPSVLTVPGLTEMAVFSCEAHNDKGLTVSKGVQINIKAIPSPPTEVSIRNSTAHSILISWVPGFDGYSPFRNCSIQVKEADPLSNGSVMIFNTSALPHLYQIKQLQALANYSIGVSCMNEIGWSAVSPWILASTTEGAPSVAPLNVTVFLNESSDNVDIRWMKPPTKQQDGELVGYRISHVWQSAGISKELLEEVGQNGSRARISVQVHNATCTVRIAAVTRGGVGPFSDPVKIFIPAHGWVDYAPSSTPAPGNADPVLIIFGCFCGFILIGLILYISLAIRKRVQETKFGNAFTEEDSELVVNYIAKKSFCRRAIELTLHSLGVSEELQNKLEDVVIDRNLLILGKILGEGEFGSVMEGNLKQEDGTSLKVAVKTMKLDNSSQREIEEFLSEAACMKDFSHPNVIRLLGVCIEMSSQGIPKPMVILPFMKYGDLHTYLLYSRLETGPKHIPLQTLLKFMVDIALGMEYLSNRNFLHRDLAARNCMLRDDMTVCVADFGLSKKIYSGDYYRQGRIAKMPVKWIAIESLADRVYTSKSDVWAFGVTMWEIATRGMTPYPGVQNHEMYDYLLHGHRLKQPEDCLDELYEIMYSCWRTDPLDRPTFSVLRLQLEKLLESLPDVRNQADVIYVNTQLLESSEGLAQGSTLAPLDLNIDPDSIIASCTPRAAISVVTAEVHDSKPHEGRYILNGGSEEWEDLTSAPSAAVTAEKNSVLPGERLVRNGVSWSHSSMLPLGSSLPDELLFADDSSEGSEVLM
Sequence of EPHB2 (P29323 whole entry, looked up): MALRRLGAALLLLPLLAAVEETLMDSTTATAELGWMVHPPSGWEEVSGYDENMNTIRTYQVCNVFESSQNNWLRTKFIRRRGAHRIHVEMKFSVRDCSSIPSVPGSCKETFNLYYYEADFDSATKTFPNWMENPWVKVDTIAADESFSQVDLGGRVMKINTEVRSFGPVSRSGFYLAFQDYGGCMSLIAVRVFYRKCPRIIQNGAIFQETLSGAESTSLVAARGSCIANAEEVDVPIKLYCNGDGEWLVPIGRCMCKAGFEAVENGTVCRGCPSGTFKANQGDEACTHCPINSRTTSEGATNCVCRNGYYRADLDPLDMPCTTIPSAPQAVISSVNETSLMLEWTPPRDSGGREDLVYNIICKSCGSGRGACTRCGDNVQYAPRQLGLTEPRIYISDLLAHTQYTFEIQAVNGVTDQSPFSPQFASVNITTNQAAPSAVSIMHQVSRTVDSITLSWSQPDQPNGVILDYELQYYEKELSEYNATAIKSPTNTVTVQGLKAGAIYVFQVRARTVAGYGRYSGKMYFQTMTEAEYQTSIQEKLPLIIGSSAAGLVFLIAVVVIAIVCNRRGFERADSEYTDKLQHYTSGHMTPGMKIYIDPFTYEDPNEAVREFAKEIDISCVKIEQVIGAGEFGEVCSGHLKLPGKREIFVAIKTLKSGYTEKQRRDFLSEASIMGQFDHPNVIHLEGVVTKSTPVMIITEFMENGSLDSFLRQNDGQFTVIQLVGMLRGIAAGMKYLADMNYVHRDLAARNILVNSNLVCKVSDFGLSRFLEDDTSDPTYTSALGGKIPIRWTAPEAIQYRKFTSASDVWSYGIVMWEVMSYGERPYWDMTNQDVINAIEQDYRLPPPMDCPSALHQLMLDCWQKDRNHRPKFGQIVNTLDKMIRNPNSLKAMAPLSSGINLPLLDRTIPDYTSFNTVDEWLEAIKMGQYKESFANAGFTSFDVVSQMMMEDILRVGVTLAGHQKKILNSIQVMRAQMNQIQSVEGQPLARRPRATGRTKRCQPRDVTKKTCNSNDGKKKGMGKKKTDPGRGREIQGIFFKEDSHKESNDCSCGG
Sequence of EPHB1 (P54762 whole entry, looked up): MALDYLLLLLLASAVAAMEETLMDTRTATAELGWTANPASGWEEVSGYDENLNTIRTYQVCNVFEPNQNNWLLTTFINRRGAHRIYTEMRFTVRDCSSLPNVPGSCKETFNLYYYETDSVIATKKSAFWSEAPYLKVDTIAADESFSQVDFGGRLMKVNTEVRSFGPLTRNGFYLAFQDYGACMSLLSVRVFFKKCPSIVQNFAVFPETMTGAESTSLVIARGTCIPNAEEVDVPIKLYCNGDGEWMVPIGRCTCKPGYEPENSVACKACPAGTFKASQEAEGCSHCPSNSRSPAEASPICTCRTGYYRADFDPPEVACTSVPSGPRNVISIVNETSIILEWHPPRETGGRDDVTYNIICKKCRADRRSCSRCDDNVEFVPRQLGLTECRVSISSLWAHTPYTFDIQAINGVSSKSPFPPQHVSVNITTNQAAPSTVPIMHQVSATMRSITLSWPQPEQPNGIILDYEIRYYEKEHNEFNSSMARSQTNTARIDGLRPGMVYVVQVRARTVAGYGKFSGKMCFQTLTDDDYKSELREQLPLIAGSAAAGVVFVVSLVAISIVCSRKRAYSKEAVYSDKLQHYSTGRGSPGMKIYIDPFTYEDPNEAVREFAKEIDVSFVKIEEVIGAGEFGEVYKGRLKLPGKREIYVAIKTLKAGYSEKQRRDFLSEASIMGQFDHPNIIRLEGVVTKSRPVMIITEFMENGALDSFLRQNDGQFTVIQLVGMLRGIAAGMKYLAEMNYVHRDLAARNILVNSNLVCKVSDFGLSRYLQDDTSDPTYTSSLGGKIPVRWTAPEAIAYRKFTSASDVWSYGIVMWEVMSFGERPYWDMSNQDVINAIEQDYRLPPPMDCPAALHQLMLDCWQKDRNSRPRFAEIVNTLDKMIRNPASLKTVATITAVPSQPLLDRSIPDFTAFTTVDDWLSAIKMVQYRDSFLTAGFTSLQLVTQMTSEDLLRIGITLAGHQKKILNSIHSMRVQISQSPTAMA
Sequence of FGFR3 (P22607 whole entry, looked up): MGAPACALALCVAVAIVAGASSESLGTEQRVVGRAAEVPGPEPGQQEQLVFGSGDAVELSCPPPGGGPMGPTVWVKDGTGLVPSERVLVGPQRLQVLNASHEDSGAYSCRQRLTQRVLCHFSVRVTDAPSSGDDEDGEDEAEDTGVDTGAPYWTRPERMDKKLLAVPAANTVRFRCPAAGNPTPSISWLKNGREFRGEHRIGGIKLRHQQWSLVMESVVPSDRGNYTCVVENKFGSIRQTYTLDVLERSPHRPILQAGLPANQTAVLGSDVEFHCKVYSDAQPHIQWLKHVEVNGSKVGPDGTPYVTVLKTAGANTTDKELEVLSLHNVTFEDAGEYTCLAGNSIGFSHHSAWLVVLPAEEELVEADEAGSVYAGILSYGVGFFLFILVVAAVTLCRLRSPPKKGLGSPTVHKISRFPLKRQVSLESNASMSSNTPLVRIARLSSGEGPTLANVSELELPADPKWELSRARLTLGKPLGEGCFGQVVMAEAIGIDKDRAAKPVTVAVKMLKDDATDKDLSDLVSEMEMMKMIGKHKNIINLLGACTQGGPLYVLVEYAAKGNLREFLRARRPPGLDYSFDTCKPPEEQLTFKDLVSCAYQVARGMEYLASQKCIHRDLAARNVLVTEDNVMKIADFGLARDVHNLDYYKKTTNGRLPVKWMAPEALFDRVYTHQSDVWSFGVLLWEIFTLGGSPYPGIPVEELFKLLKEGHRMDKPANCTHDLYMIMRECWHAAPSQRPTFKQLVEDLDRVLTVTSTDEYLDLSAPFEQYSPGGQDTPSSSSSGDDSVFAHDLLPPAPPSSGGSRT
Sequence of Jak2 (O60674 whole entry, looked up): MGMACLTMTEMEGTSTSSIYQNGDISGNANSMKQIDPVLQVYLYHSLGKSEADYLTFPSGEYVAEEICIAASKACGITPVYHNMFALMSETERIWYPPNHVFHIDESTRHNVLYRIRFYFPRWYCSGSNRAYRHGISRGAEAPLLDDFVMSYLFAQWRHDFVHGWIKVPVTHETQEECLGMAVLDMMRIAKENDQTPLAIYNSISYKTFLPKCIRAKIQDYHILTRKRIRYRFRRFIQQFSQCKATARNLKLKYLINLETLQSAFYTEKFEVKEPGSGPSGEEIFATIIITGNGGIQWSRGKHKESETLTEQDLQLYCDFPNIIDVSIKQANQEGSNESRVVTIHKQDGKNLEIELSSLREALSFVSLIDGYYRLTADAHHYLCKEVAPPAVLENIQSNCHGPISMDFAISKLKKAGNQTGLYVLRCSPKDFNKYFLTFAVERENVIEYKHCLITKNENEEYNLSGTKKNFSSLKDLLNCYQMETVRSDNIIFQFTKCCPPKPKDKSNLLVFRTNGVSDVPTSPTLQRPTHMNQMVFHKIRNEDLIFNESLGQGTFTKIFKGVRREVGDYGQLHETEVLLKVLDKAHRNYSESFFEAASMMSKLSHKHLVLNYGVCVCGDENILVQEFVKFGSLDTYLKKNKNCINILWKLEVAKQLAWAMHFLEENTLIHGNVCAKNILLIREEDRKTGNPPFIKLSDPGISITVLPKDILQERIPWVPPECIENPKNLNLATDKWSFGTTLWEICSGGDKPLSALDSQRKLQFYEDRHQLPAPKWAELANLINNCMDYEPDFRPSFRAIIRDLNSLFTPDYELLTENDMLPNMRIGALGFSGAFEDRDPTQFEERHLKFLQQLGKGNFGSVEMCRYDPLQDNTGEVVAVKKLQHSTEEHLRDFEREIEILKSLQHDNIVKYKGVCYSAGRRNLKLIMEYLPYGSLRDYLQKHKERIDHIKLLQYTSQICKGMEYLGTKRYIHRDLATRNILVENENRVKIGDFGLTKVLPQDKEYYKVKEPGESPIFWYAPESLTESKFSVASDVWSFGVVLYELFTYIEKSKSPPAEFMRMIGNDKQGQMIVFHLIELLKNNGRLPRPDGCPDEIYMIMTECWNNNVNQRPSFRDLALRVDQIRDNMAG

SH2 binding enrichment (Grb2 SH2) | SH2 binding enrichment (SHP2-C SH2) | SH2 binding enrichment (c-Src SH2) | Sequence | phosphorylation enrichment (FGFR1) | phosphorylation enrichment (Jak2) | phosphorylation enrichment (c-Abl (mouse)) | phosphorylation enrichment (Fer (mouse)) | phosphorylation enrichment (FGFR3) | phosphorylation enrichment (EPHB1) | phosphorylation enrichment (Hck) | phosphorylation enrichment (AncSZ) | phosphorylation enrichment (Fes) | phosphorylation enrichment (Fyn) | phosphorylation enrichment (EPHB2) | phosphorylation enrichment (c-Src) | phosphorylation enrichment (MERTK)
0.613 | 0.63 | 1.08 | KSEFAYEIFDK [MYOM2_Y1024_L1022F] | 0.564 | 1.01 | 0.746 | 0.543 | 0.664 | 0.527 | 0.561 | 1.34 | 1.04 | 0.797 | 0.573 | 2.1 | 0.967
0.863 | 0.628 | 0.511 | LITSVYGCSRQ [TMPRSS6_Y290] | 1.04 | 1.24 | 1.27 | 0.716 | 1.21 | 0.989 | 1.83 | 1.39 | 1.25 | 1.57 | 1 | 1.7 | 0.545
0.772 | 0.444 | 0.537 | FQLENCCNGGG [INS_Y108_Y108C_YF] | 0.442 | 0.85 | 0.546 | 0.564 | 0.523 | 0.509 | 0.504 | 0.896 | 0.944 | 0.445 | 0.586 | 0.467 | 0.516
0.776 | 0.505 | 0.416 | TPGPNYRPGFN [USH2A_Y463_YF] | 0.647 | 0.675 | 0.576 | 0.498 | 0.646 | 0.531 | 0.586 | 0.707 | 0.716 | 0.536 | 0.436 | 0.452 | 0.87
0.779 | 0.691 | 9.88 | TLNHQYDYTFD [CSNK1A1_Y292] | 0.85 | 0.783 | 0.565 | 0.432 | 0.824 | 0.512 | 0.536 | 1.05 | 0.964 | 0.519 | 0.706 | 1.27 | 0.453
0.994 | 0.897 | 4.04 | HGEAYYSEVKA [PAK5_Y182_P187A] | 2.83 | 1.98 | 0.506 | 3.92 | 1.85 | 0.926 | 2.47 | 1.04 | 0.773 | 1.68 | 0.563 | 2.22 | 4.12
0.826 | 0.651 | 0.486 | STGSRYQPLAS [NCAPD2_Y1325] | 0.42 | 0.596 | 0.505 | 0.423 | 0.494 | 0.424 | 0.414 | 0.474 | 0.609 | 0.433 | 0.435 | 0.423 | 0.549
0.891 | 1.19 | 3.28 | SNPAYYVLEGV [INPPL1_Y987_N982S] | 15.1 | 4 | 0.538 | 0.515 | 12.1 | 0.769 | 0.917 | 1 | 0.921 | 1.25 | 0.609 | 1.21 | 7.46
0.868 | 26.8 | 4.8 | IGHGSYAKVLL [PRKCZ_Y263_R260H] | 0.517 | 0.662 | 0.599 | 0.68 | 0.635 | 0.536 | 0.523 | 0.728 | 0.805 | 0.624 | 0.656 | 0.454 | 0.57
0.824 | 1.48 | 7.06 | TMKSHYMELFD [BBS2_Y644_R643H_YF] | 0.708 | 0.772 | 0.572 | 0.547 | 0.72 | 0.764 | 0.601 | 1.1 | 0.966 | 0.51 | 0.582 | 0.431 | 0.893
1.3 | 0.875 | 1.18 | NLNGKYNKPRA [ANGPTL3_Y417] | 0.344 | 0.8 | 0.696 | 0.372 | 0.525 | 0.294 | 0.362 | 0.51 | 0.613 | 0.659 | 0.353 | 0.334 | 0.471
0.902 | 0.64 | 0.481 | FLTQHYDAKPQ [ANG_Y38] | 1.14 | 0.869 | 0.613 | 0.658 | 0.58 | 0.637 | 0.67 | 0.732 | 0.741 | 0.583 | 0.581 | 0.609 | 0.557
0.868 | 0.627 | 0.646 | EQKKYSNAMKK [SCN5A_Y1495_Y1495S] | 0.304 | 0.437 | 0.469 | 0.247 | 0.459 | 0.326 | 0.467 | 0.498 | 0.53 | 0.322 | 0.333 | 0.262 | 0.29
0.719 | 0.647 | 0.418 | KLQKFYRQNPD [EHHADH_Y683_YF] | 0.343 | 0.393 | 0.581 | 0.387 | 0.416 | 0.545 | 0.443 | 0.499 | 0.498 | 0.418 | 0.348 | 0.409 | 0.452
1.04 | 16.1 | 3.02 | YSSLGYPPPEG [ZSWIM4_Y87] | 1.06 | 0.568 | 0.66 | 0.67 | 0.821 | 0.511 | 1.66 | 0.741 | 0.793 | 2.36 | 0.508 | 1.22 | 7.49
0.674 | 0.629 | 2.5 | EIPTQYEAMAS [GFAP_Y242_R239P] | 0.536 | 0.802 | 0.615 | 0.662 | 0.694 | 0.853 | 0.596 | 0.982 | 1.04 | 0.487 | 0.577 | 0.405 | 0.445
0.71 | 1.41 | 8.46 | LTYHMYADPNI [SOS1_Y618_F623I] | 4.27 | 2.03 | 3.47 | 1.23 | 3.13 | 5.79 | 4.78 | 2.56 | 1.59 | 6.07 | 6.28 | 9.95 | 3.73

SH2 binding enrichment (Grb2 SH2) | SH2 binding enrichment (SHP2-C SH2) | SH2 binding enrichment (c-Src SH2) | Sequence | phosphorylation enrichment (FGFR1) | phosphorylation enrichment (Jak2) | phosphorylation enrichment (c-Abl (mouse)) | phosphorylation enrichment (Fer (mouse)) | phosphorylation enrichment (FGFR3) | phosphorylation enrichment (EPHB1) | phosphorylation enrichment (Hck) | phosphorylation enrichment (AncSZ) | phosphorylation enrichment (Fes) | phosphorylation enrichment (Fyn) | phosphorylation enrichment (EPHB2) | phosphorylation enrichment (c-Src) | phosphorylation enrichment (MERTK)
0.752 | 0.616 | 0.453 | SRDTCYLVLAV [AMH_Y195_R194C] | 0.786 | 1.4 | 1.06 | 0.62 | 1.12 | 0.719 | 0.651 | 1.52 | 1.48 | 0.555 | 0.684 | 0.666 | 0.552
1.17 | 1.1 | 0.517 | RVSSVYTRSTG [CCR5_Y339_A335V] | 0.936 | 1.02 | 0.873 | 0.984 | 0.945 | 0.945 | 1.13 | 1.18 | 1.22 | 1.1 | 0.867 | 0.853 | 0.665
0.787 | 0.505 | 0.487 | SGPRRYTMAAL [TTR_Y125_I127M] | 0.423 | 0.601 | 0.555 | 0.383 | 0.459 | 0.396 | 0.488 | 0.677 | 0.611 | 0.416 | 0.466 | 0.533 | 0.44
0.867 | 0.559 | 0.761 | AGKEEYSAMRD [HRAS_Y64_Q61K] | 0.529 | 0.644 | 0.629 | 0.481 | 0.582 | 0.467 | 0.49 | 0.799 | 0.871 | 0.432 | 0.505 | 0.436 | 0.44
0.706 | 0.523 | 0.466 | AVHPGYGFLSE [PCCA_Y143] | 0.662 | 0.82 | 0.692 | 0.545 | 1.12 | 0.46 | 0.666 | 0.663 | 0.99 | 0.487 | 0.672 | 0.47 | 0.527
0.599 | 0.501 | 1.23 | RMGNLYDIDED [GRIN2A_Y1246] | 0.591 | 1.36 | 1.11 | 0.543 | 0.808 | 0.583 | 1.25 | 1.11 | 1.32 | 2.25 | 0.491 | 1.25 | 0.606
0.707 | 2.59 | 0.828 | QTENKYVSVSG [EIF2AK3_Y565_D566V] | 0.527 | 0.754 | 0.938 | 0.626 | 0.581 | 0.808 | 0.85 | 0.61 | 1.51 | 0.627 | 0.683 | 0.693 | 0.548
1.11 | 0.968 | 0.508 | LARDMDDKEFF [MET_Y1230_Y1230D_YF] | 0.453 | 0.708 | 0.464 | 0.428 | 1.08 | 0.451 | 0.456 | 0.895 | 0.997 | 0.342 | 0.53 | 0.498 | 0.523
0.908 | 0.607 | 0.659 | PLQKTYNHNVL [SLC4A1_Y553_Y555H] | 0.479 | 0.892 | 0.833 | 0.659 | 0.524 | 0.576 | 0.291 | 0.657 | 0.946 | 0.531 | 0.591 | 0.686 | 0.744
0.966 | 0.561 | 0.492 | DGTGHYLGNAC [GATA5_Y208_C210G] | 0.421 | 0.548 | 0.554 | 0.4 | 0.474 | 0.471 | 0.399 | 0.624 | 0.727 | 0.347 | 0.456 | 0.311 | 0.357
0.993 | 0.806 | 0.782 | KWLEQYTQAIE [LSP1_Y234_Q229K] | 0.472 | 0.915 | 0.702 | 0.442 | 0.573 | 0.499 | 0.441 | 1.04 | 0.977 | 0.454 | 0.683 | 0.452 | 0.39
0.802 | 0.756 | 0.527 | RGVTRYIYNRE [HLA-DQB1_Y62_Y58G] | 0.809 | 1.25 | 1 | 0.768 | 0.619 | 0.912 | 0.97 | 1.34 | 1.16 | 0.96 | 0.547 | 0.953 | 0.865
0.728 | 0.817 | 0.612 | NFADPYRQLPF [CTNND2_Y503_Q507P_YF] | 0.661 | 0.62 | 0.638 | 0.46 | 0.652 | 0.432 | 0.659 | 0.732 | 0.728 | 0.587 | 0.58 | 0.642 | 0.417
0.627 | 0.52 | 0.564 | SGSFRYGSSFE [SELE_Y390_C394F] | 0.419 | 0.629 | 0.489 | 0.484 | 0.528 | 0.463 | 0.389 | 0.692 | 0.686 | 0.526 | 0.438 | 0.425 | 0.426
0.832 | 0.847 | 5.21 | SLEKGYELPDG [ACTC1_Y242_S241G] | 0.438 | 0.756 | 0.6 | 0.436 | 0.545 | 0.475 | 0.488 | 0.994 | 0.909 | 0.49 | 0.499 | 0.368 | 0.35
0.714 | 0.744 | 0.56 | EVKRLYGSVCD [TC2N_Y154] | 0.475 | 1.06 | 0.849 | 0.543 | 0.703 | 0.529 | 0.61 | 0.866 | 1.16 | 0.695 | 0.585 | 0.656 | 0.515
